Measured values as given in article PMC7540344.
Values belong to the substance of their own block, whether it stands above or below them.

Experiments:
YC‐StFDL1a = YC‐StFDL1a (UniProt A0A1E1F9A2); assay: bimolecular fluorescence complementation (BiFC); conditions: random fields from maximum intensity projections (n ≥ 10); opposing half-leaves, same imaging conditions; read off a plot
YC‐St14‐3‐3f = assay: bimolecular fluorescence complementation (BiFC); conditions: random fields from maximum intensity projections (n ≥ 10); opposing half-leaves, same imaging conditions; read off a plot
YC‐St14‐3‐3a = assay: bimolecular fluorescence complementation (BiFC); conditions: random fields from maximum intensity projections (n ≥ 10); opposing half-leaves, same imaging conditions; read off a plot
YC‐StFD = YC‐StFD (UniProt A0A1E1F9A3); assay: bimolecular fluorescence complementation (BiFC); conditions: random fields from maximum intensity projections (n ≥ 10); opposing half-leaves, same imaging conditions; read off a plot
[1] = target: YC‐StFDL1a (Solanum tuberosum cv. Desiree)
YC‐StCEN = assay: bimolecular fluorescence complementation (BiFC); conditions: random fields from maximum intensity projections (n ≥ 10); opposing half-leaves, same imaging conditions; read off a plot

Chain of UniProt A0A1E1F9A2 (A0A1E1F9A2 entry or part of it): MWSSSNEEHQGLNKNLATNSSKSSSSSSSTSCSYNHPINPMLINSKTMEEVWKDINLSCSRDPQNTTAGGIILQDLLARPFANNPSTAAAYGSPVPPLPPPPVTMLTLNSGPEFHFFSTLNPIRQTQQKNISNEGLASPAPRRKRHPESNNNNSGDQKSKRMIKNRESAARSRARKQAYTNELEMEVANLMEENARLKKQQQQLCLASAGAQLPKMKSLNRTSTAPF
Chain of UniProt A0A1E1F9A3 (A0A1E1F9A3 entry or part of it): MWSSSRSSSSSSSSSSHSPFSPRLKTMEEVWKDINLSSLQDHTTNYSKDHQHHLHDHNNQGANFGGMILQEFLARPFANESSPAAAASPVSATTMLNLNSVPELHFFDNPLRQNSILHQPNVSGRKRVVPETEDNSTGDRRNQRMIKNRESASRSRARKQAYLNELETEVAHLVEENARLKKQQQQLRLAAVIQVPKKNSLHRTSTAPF

ratio to parent (YC‐StFDL1a): 2.8 | ratio to parent (YC‐St14‐3‐3f): 1.2 | ratio to parent (YC‐St14‐3‐3a): 1.3 | ratio to parent (YC‐StFD): 2.7
Substance: YN‐StCEN R64K; P96L; F103A; R132K

luciferase activity of the p6A::LUC reporter (2.64 kb StSP6A promoter) in N. benthamiana leaves co-expressing StSP6A and estradiol-induced StFDL1a, against the reporter alone [1]: 3 fold
Substance: StSP6A (tuberigen, FT orthologue of potato), 35S-driven GFP fusion (natural protein)

ratio to parent (YC‐StCEN): 3.4
Substance: YN‐StFDL1a (from UniProt A0A1E1F9A2) T224A
